Assay results: patent US20180271998A1 (MERRIMACK PHARMACEUTICALS, published 2018)

How the values were obtained:
[1] = biological target: T1, Recombinant, Human EphA2 with C-terminal hexahistidine appended (human, UniProt P29317 25-534); assay: BLI (Octet Red 96), EphA2-His on anti-His5 sensors, Fab-PEG-DSPE conjugate
T1 construct: Captured on anti-His5 sensors; also called his-tagged recombinant, human EphA
Method: (§1) The Fab-PEG-DSPE conjugates were assayed for EphA2 binding strength using the FortéBIO® Octet® Red 96 system (Pall Corporation) to determine whether conjugation or engineering of the Fab affected binding activity. […] Anti-His5 sensors were first coated with his-tagged recombinant, human EphA (SEQ ID NO:47) at a concentration of 10 μg/ml protein in PBS. The sensors were then incubated in 4 μg/ml of Fab-PEG-DSPE conjugate in PBS. The slope of an association curve between 2-10 seconds was determined and compared across the variants and to the reference conjugate, Fab 11-PEG-PE, which is the anti-EphA2 antibody with wild-type disulfide pairing.

[2] = biological target: T1, Recombinant, Human EphA2 with …; assay: BLI (Octet Red96), EphA2-His on anti-His5 sensors, liposomes with inserted conjugate
Method: (§2) The purified liposomes were assayed for EphA2 binding strength by FortéBIO® Octet® Red96 system (Pall) in PBS at 25 μM liposome phospholipid using anti-His5 sensors coated with recombinant human EphA2 with C-terminal hexahistidine (SEQ ID NO:47). The slope of the association curve from 3-20 sec was determined and compared to the slope observed for liposomes with inserted conjugate of the wild type Fab.

[3] = biological target: T1, Recombinant, Human EphA2 with …; assay: BLI (Octet Red 96), EphA2-His on anti-His5 sensors, 4 ug/ml Fab-PEG-DSPE conjugate, slope of association curve 2-10 s relative to Fab 11 conjugate
Method: as §1

[4] = biological target: T1, Recombinant, Human EphA2 with …; assay: BLI (Octet Red96), EphA2-His on anti-His5 sensors, doxorubicin liposomes with inserted Fab-PEG-DSPE conjugate at 25 uM phospholipid, slope of association curve 3-20 s relative to Fab 11 liposomes
Method: as §2

T1 sequence (P29317 other isoform, or with tags, fused parts or gaps limits assumed): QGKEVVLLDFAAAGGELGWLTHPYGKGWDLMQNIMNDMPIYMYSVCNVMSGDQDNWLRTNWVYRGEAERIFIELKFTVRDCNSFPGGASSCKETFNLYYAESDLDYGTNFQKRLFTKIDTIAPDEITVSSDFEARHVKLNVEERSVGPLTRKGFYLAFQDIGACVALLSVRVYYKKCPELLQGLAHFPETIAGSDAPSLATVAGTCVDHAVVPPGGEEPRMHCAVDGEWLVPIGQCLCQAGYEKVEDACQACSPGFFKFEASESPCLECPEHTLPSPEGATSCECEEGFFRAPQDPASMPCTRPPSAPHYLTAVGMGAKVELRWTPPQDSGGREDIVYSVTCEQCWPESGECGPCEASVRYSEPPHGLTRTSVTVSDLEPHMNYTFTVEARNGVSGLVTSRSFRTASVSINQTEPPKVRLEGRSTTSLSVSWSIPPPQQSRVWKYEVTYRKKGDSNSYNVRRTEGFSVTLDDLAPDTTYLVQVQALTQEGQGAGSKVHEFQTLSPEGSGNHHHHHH

B1: anti-EphA2 Fab 12 (IgG1 G44C, C233S heavy chain; lambda G100C, C214S light chain), Fab-PEG-DSPE conjugate (Fab, V domains shown)
VH: QVQLVQSGGGLVQPGGSLRLSCAASGFTFSSYAMHWVRQAPGKCLEWVTVISPDGHNTYYADSVKGRFTISRDNSKNTLYLQMNSLRAEDTAVYYCARASVGATGPFDIWGQGTLVTVSS
VL: SSELTQPPSVSVAPGQTVTITCQGDSLRSYYASWYQQKPGTAPKLLIYGENNRPSGVPDRFSGSSSGTSASLTITGAQAEDEADYYCNSRDSSGTHLTVFGCGTKLTVLG
modifications: mal-PEG(2000)-DSPE linker conjugated to the C-terminal cysteine of the heavy chain (Cys in DKTHTCAA)
[1]
  binding strength compared to wild-type protein conjugate: 75%
[2]
  EphA2 binding strength compared to control liposomes: > 80%
[3]
  Binding strength, % of wild type conjugate: 108 % of wild type conjugate
[4]
  Fab-liposome binding strength, % of control: 109 % of control

B2: anti-EphA2 Fab 16 (IgG1 H172F, F174C, C233S heavy chain; lambda T162L, S174V, S176C, C214S light chain), Fab-PEG-DSPE conjugate (Fab, V domains shown)
VH: QVQLVQSGGGLVQPGGSLRLSCAASGFTFSSYAMHWVRQAPGKGLEWVTVISPDGHNTYYADSVKGRFTISRDNSKNTLYLQMNSLRAEDTAVYYCARASVGATGPFDIWGQGTLVTVSS
VL: SSELTQPPSVSVAPGQTVTITCQGDSLRSYYASWYQQKPGTAPKLLIYGENNRPSGVPDRFSGSSSGTSASLTITGAQAEDEADYYCNSRDSSGTHLTVFGGGTKLTVLG
modifications: mal-PEG(2000)-DSPE linker conjugated to the C-terminal cysteine of the heavy chain (Cys in DKTHTCAA)
[1]
  binding strength compared to wild-type protein conjugate: 75%
[2]
  EphA2 binding strength compared to control liposomes: > 80%
[3]
  Binding strength, % of wild type conjugate: 85 % of wild type conjugate
[4]
  Fab-liposome binding strength, % of control: 89.3 % of control

B3: anti-EphA2 Fab 19 (IgG1 G44L, H172F, F174C, C233S heavy chain; lambda G100L, T162L, S174V, S176C, C214S light chain), Fab-PEG-DSPE conjugate (Fab, V domains shown)
VH: QVQLVQSGGGLVQPGGSLRLSCAASGFTFSSYAMHWVRQAPGKLLEWVTVISPDGHNTYYADSVKGRFTISRDNSKNTLYLQMNSLRAEDTAVYYCARASVGATGPFDIWGQGTLVTVSS
VL: SSELTQPPSVSVAPGQTVTITCQGDSLRSYYASWYQQKPGTAPKLLIYGENNRPSGVPDRFSGSSSGTSASLTITGAQAEDEADYYCNSRDSSGTHLTVFGLGTKLTVLG
modifications: mal-PEG(2000)-DSPE linker conjugated to the C-terminal cysteine of the heavy chain (Cys in DKTHTCAA)
[1]
  binding strength compared to wild-type protein conjugate: 75%
[2]
  EphA2 binding strength compared to control liposomes: > 80%
[3]
  Binding strength, % of wild type conjugate: 96.8 % of wild type conjugate
[4]
  Fab-liposome binding strength, % of control: 83.3 % of control

B4: anti-EphA2 Fab 13 (IgG1 F174C, C233S heavy chain; lambda S176C, C214S light chain), Fab-PEG-DSPE conjugate (Fab, V domains shown)
VH: QVQLVQSGGGLVQPGGSLRLSCAASGFTFSSYAMHWVRQAPGKGLEWVTVISPDGHNTYYADSVKGRFTISRDNSKNTLYLQMNSLRAEDTAVYYCARASVGATGPFDIWGQGTLVTVSS
VL: SSELTQPPSVSVAPGQTVTITCQGDSLRSYYASWYQQKPGTAPKLLIYGENNRPSGVPDRFSGSSSGTSASLTITGAQAEDEADYYCNSRDSSGTHLTVFGGGTKLTVLG
modifications: mal-PEG(2000)-DSPE linker conjugated to the C-terminal cysteine of the heavy chain (Cys in DKTHTCAA)
[1]
  binding strength compared to wild-type protein conjugate: 75%
[2]
  EphA2 binding strength compared to control liposomes: > 80%
[3]
  Binding strength, % of wild type conjugate: 96.9 % of wild type conjugate
[4]
  Fab-liposome binding strength, % of control: 96.5 % of control

B5: anti-EphA2 Fab 17 (IgG1 G44L, F174C, C233S heavy chain; lambda G100L, S176C, C214S light chain), Fab-PEG-DSPE conjugate (Fab, V domains shown)
VH: QVQLVQSGGGLVQPGGSLRLSCAASGFTFSSYAMHWVRQAPGKLLEWVTVISPDGHNTYYADSVKGRFTISRDNSKNTLYLQMNSLRAEDTAVYYCARASVGATGPFDIWGQGTLVTVSS
VL: SSELTQPPSVSVAPGQTVTITCQGDSLRSYYASWYQQKPGTAPKLLIYGENNRPSGVPDRFSGSSSGTSASLTITGAQAEDEADYYCNSRDSSGTHLTVFGLGTKLTVLG
modifications: mal-PEG(2000)-DSPE linker conjugated to the C-terminal cysteine of the heavy chain (Cys in DKTHTCAA)
[1]
  binding strength compared to wild-type protein conjugate: 75%
[2]
  EphA2 binding strength compared to control liposomes: > 80%
[3]
  Binding strength, % of wild type conjugate: 89.7 % of wild type conjugate
[4]
  Fab-liposome binding strength, % of control: 102 % of control

B6: anti-EphA2 Fab 14 (IgG1 G44C, F174C, C233S heavy chain; lambda G100C, S176C, C214S light chain), Fab-PEG-DSPE conjugate (Fab, V domains shown)
VH: QVQLVQSGGGLVQPGGSLRLSCAASGFTFSSYAMHWVRQAPGKCLEWVTVISPDGHNTYYADSVKGRFTISRDNSKNTLYLQMNSLRAEDTAVYYCARASVGATGPFDIWGQGTLVTVSS
VL: SSELTQPPSVSVAPGQTVTITCQGDSLRSYYASWYQQKPGTAPKLLIYGENNRPSGVPDRFSGSSSGTSASLTITGAQAEDEADYYCNSRDSSGTHLTVFGCGTKLTVLG
modifications: mal-PEG(2000)-DSPE linker conjugated to the C-terminal cysteine of the heavy chain (Cys in DKTHTCAA)
[1]
  binding strength compared to wild-type protein conjugate: 75%
[2]
  EphA2 binding strength compared to control liposomes: > 80%
[3]
  Binding strength, % of wild type conjugate: 105 % of wild type conjugate
[4]
  Fab-liposome binding strength, % of control: 120 % of control

B7: anti-EphA2 Fab 15 (IgG1 H172E, F174C, C233S heavy chain; lambda T162D, S176C, C214S light chain), Fab-PEG-DSPE conjugate (Fab, V domains shown)
VH: QVQLVQSGGGLVQPGGSLRLSCAASGFTFSSYAMHWVRQAPGKGLEWVTVISPDGHNTYYADSVKGRFTISRDNSKNTLYLQMNSLRAEDTAVYYCARASVGATGPFDIWGQGTLVTVSS
VL: SSELTQPPSVSVAPGQTVTITCQGDSLRSYYASWYQQKPGTAPKLLIYGENNRPSGVPDRFSGSSSGTSASLTITGAQAEDEADYYCNSRDSSGTHLTVFGGGTKLTVLG
modifications: mal-PEG(2000)-DSPE linker conjugated to the C-terminal cysteine of the heavy chain (Cys in DKTHTCAA)
[1]
  binding strength compared to wild-type protein conjugate: 75%
[2]
  EphA2 binding strength compared to control liposomes: > 80%
[3]
  Binding strength, % of wild type conjugate: 86 % of wild type conjugate
[4]
  Fab-liposome binding strength, % of control: 102 % of control

B8: anti-EphA2 Fab 18 (IgG1 G44L, H172E, F174C, C233S heavy chain; lambda G100L, T162D, S176C, C214S light chain), Fab-PEG-DSPE conjugate (Fab, V domains shown)
VH: QVQLVQSGGGLVQPGGSLRLSCAASGFTFSSYAMHWVRQAPGKLLEWVTVISPDGHNTYYADSVKGRFTISRDNSKNTLYLQMNSLRAEDTAVYYCARASVGATGPFDIWGQGTLVTVSS
VL: SSELTQPPSVSVAPGQTVTITCQGDSLRSYYASWYQQKPGTAPKLLIYGENNRPSGVPDRFSGSSSGTSASLTITGAQAEDEADYYCNSRDSSGTHLTVFGLGTKLTVLG
modifications: mal-PEG(2000)-DSPE linker conjugated to the C-terminal cysteine of the heavy chain (Cys in DKTHTCAA)
[1]
  binding strength compared to wild-type protein conjugate: 75%
[2]
  EphA2 binding strength compared to control liposomes: > 80%
[3]
  Binding strength, % of wild type conjugate: 75.5 % of wild type conjugate
[4]
  Fab-liposome binding strength, % of control: 99.6 % of control
